Test [1] has as its target CynD R231C (Bacillus pumilus). Put plainly: SEC; Superdex 200 10/300 GL, 0.1 M MOPS pH 7.7, 0.5 ml/min; His-tag purified protein; column calibrated with a marker kit, and with wild-type B. pumilus CynD (18-mer) and P. stutzeri CynD (14-mer).
Test [2] addresses CynD G61C (Bacillus pumilus). The description is as above.
For test [3], the target named is cyanide dihydratase from Bacillus pumilus (CynD), wild type (Bacillus pumilus). The description is as above.
Test [4] addresses CynD Y70C (Bacillus pumilus). The test is described as above.
The target of test [5] is CynD Y233C (Bacillus pumilus). The test is described as above.
For test [6], the target named is CynD E72C (Bacillus pumilus). Described as above.
The target in test [7] is CynD P55C (Bacillus pumilus). The test is described as above.
For test [8], the target named is CynD E222C (Bacillus pumilus). The description is as above.
Test [9] deals with CynD T66C (Bacillus pumilus). Described as above.
Test [10] addresses CynD I224C (Bacillus pumilus). The description is as above.
Test [11] has as its target CynD F59C (Bacillus pumilus). The test is described as above.
For test [12], the target named is CynD W56C (Bacillus pumilus). The test is described as above.
Test [13] deals with CynD F57C (Bacillus pumilus). The test is described as above.
In test [14] the target is CynD from Pseudomonas stutzeri (Pseudomonas stutzeri). Described as above.
Test [15] has as its target CynD E235C (Bacillus pumilus). The description is as above.
Test [16] concerns the target CynD Y65C (Bacillus pumilus). The test is described as above.
Test [17] deals with CynD Q230C (Bacillus pumilus). Described as above.
In test [18] the target is CynD L226C (Bacillus pumilus). The description is as above.
Test [19] addresses CynD F234C (Bacillus pumilus). The test is described as above.
The target of test [20] is CynD E229C (Bacillus pumilus). Described as above.
Test [21] has as its target CynD C225A (Bacillus pumilus). The test is described as above.
The target in test [22] is CynD T227C (Bacillus pumilus). The description is as above.
Test [23] deals with CynD H62C (Bacillus pumilus). Described as above.
Test [24] addresses CynD E64C (Bacillus pumilus). The description is as above.
The target of test [25] is CynD P63C (Bacillus pumilus). The test is described as above.
For test [26], the target named is CynD H71C (Bacillus pumilus). The description is as above.
The target in test [27] is CynD A58C (Bacillus pumilus). Described as above.
For test [28], the target named is CynD D232C (Bacillus pumilus). Described as above.
Test [29] has as its target CynD M223C (Bacillus pumilus). Described as above.
For test [30], the target named is CynD R67C (Bacillus pumilus).
Test [31] deals with CynD I60C (Bacillus pumilus). Put plainly: SEC; Superdex 200 10/300 GL, 0.1 M MOPS pH 7.7, 0.5 ml/min; His-tag purified protein; column calibrated with a marker kit, and with wild-type B. pumilus CynD (18-mer) and P. stutzeri CynD (14-mer).
For test [32], the target named is CynD F69C (Bacillus pumilus). Described as above.
The target in test [33] is CynD K68C (Bacillus pumilus). Described as above.

Usually stoichiometry N stands for a count of units in the complex or per binding partner.

With CynD R231C (enzyme), the stoichiometry N in test [1] was 18 subunits.
CynD G61C (enzyme) had a stoichiometry N in test [2] of 14 subunits.
In turn, “cyanide dihydratase from Bacillus pumilus (CynD), wild type (enzyme)” returned a stoichiometry N in [3] of 18 subunits.
CynD Y70C (enzyme) registered a stoichiometry N in test [4] of 16 subunits.
CynD Y233C (enzyme) gave a stoichiometry N in test [5] of 16 subunits.
Turning to CynD E72C (enzyme), in [6], the stoichiometry N turned out to be 18 subunits.
For the substance CynD P55C (enzyme), in test [7], the stoichiometry N came to 18 subunits.
The substance CynD E222C (enzyme) showed a stoichiometry N in test [8] of 18 subunits.
CynD T66C (enzyme): the stoichiometry N in [9] came out at 16 subunits.
For the substance CynD I224C (enzyme), in test [10], the stoichiometry N worked out at 18 subunits.
CynD F59C (enzyme) gave a stoichiometry N in test [11] of 18 subunits.
In test [12], CynD W56C (enzyme) had a stoichiometry N of 16 subunits.
As to CynD F57C (enzyme), in test [13], the stoichiometry N turned out to be 14 subunits.
As to CynD from Pseudomonas stutzeri (enzyme), the stoichiometry N in test [14] came out at 14 subunits.
Turning to CynD E235C (enzyme), the stoichiometry N in [15] was found to be 18 subunits.
Regarding CynD Y65C (enzyme), in test [16], the stoichiometry N is 18 subunits.
CynD Q230C (enzyme) yielded a stoichiometry N in test [17] of 18 subunits.
As to CynD L226C (enzyme), in test [18], the stoichiometry N amounted to 18 subunits.
Take CynD F234C (enzyme): the stoichiometry N in test [19] stood at 16 subunits.
Take CynD E229C (enzyme): the stoichiometry N in test [20] was 18 subunits.
In turn, CynD C225A (enzyme) gave a stoichiometry N in test [21] of 18 subunits.
For CynD T227C (enzyme), in test [22], the stoichiometry N was 18 subunits.
Take CynD H62C (enzyme): the stoichiometry N in [23] came out at 18 subunits.
Substance CynD E64C (enzyme) displayed a stoichiometry N in test [24] of 16 subunits.
As to CynD P63C (enzyme), the stoichiometry N in [25] was determined as 18 subunits.
Turning to CynD H71C (enzyme), in test [26], the stoichiometry N worked out at 16 subunits.
CynD A58C (enzyme) registered a stoichiometry N in [27] of 18 subunits.
CynD D232C (enzyme) displayed a stoichiometry N in test [28] of 18 subunits.
Regarding CynD M223C (enzyme), the stoichiometry N in [29] was determined as 18 subunits.
Regarding CynD R67C (enzyme), in test [30], the activity of the purified protein relative to wild type, picric acid cyanide assay is < 10%.
For the substance CynD I60C (enzyme), the stoichiometry N in test [31] is 18 subunits.
Take CynD F69C (enzyme): the stoichiometry N in test [32] is 16 subunits.
Take CynD K68C (enzyme): in test [33], the stoichiometry N amounted to 18 subunits.

Source of the values: PMC4700190.
